For test [1], the target named is T1, GFAP-His重组蛋白 (Homo sapiens (Human), UniProt P14136 1-432).
T1 construct: Recombinant GFAP expressed in 293F cells; also called GFAP-His蛋白; Glial fibrillary acidic protein
As to the kind of experiment: chemiluminescence sandwich assay on GFAP-His (Rabbit anti-GFAP mAb on magnetic beads, test antibody labelled with acridinium ester).

Test [2] concerns the target T1, GFAP-His重组蛋白. As to the kind of experiment: fixed capture antibody in the sandwich ELISA that detects GFAP-His.

We go through two molecules from CN117820471A (VAZYME MEDICAL CO LTD; HUNAN NOVAZYME MEDICAL TECH CO LTD, dated 2024).

T1 sequence (P14136 other isoform, or with tags, fused parts or gaps limits assumed): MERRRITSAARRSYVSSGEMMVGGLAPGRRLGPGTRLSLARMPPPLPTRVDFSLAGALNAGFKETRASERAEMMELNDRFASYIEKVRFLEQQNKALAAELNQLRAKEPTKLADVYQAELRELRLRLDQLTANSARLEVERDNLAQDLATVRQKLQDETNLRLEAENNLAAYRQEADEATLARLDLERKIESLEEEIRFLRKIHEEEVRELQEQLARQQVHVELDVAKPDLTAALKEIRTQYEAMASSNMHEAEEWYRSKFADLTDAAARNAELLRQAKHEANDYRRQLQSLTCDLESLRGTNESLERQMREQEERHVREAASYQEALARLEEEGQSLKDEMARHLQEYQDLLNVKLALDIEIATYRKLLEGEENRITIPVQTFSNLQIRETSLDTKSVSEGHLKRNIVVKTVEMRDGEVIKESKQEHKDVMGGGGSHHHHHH

B1: Anti-GFAP-rRmab-1 (antibody, V domains shown)
VH: QSLEESGGRLVTPGTPLTLTCTSSGFSLSSYYIQWVRQAPGKGLEWIGIIYASGSTYYASWAKGRFTISKTSATVDLKITSPTQEDTATYFCARNDYDSNLIMSIWGPGTLVTVSS
VL: AYDMTQTPASMEVAVGGTVTINCQASQNIGSSLAWYQQKPGQRPKLLIYRASTLASGVPSRFSGSGSGTEFTLTISGLQCDDAATYYCQQHFSIGAVQNVFGGGTEVVVR
notes: the rabbit constant regions are not; It was labelled with acridinium ester in the chemiluminescence sandwich assay; also called GFAP特异性抗体; 优选抗体
As to B1, the binding result with GFAP-His重组蛋白 [1] is reported as “binds”.

B2: Rabbit anti-GFAP mAb (antibody, V domains shown)
VH: QSLEESGGRLVTPGGSLTLTCTVSGIDLTTYTMTWVRQAPGKGLEWIGIISGSGTTYYASWAKGRFTISKTSTTVDLKITSPTTEDTATYFCARDLYGSSDIYNIWGPGTLVTVST
VL: DIVMTQTPASVSAAVGGTVTINCQASESIRNYLSWYQQKPGQPPKLLIFDASTLASGVSSRFKGSGSGTEFTLTISDLECADAATYYCQTYYGVSGFGNAFGGGTEVVVK
notes: Rabbit monoclonal antibody developed earlier, used as the fixed capture antibody (coated on the plate or on magnetic beads) in the sandwich assays; also called 包被抗体; 与之配对的抗体
Take B2: the binding result in the test with GFAP-His重组蛋白 [2] was “binds”.
